Measurements taken from patent publication US20220213169A1.
Substitutions are numbered along the chain they refer to. Several values for one entry are separate records, joined by “and”; a condition that tells them apart may be missing. Identical values can stand only once.

Biological target: T1, human ADAM8 (human) (UniProt P78325)
T1 sequence: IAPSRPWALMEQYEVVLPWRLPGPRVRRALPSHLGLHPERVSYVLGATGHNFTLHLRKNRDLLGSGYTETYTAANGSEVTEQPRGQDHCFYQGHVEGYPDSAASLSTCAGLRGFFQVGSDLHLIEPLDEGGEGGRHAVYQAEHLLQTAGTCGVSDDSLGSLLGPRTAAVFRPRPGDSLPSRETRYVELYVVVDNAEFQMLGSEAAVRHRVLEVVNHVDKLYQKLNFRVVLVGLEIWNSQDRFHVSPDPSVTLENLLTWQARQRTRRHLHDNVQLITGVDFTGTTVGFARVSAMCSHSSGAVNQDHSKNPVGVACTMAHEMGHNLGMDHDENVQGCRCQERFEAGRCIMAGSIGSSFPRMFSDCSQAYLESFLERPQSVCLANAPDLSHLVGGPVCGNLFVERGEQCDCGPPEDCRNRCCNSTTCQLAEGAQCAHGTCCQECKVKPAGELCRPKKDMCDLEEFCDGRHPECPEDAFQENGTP
Experiment: cell-based or functional assay

B1: ADAM8 prodomain peptide SEQ ID NO: 4 (peptide, not shown: small tags and cut ends)
chain: MIAPSRPWALMEQYEVVLPRRLPGPRVRAALPSHLGLHPERVSYVLGATGHNFTLHLRKNRDLLGSGYTETYTAANGSEVTEQPRGQDHSFYQGHVEGYPDSAASLSTSAGLRGFFQVGSDLHLIEPLDEGGEGGRHAVYQAEHLLQTAGTSGVSDDSLGSLLGPRTAAVFRPRPGDSLPS
percent inhibition of ADAM8 (cleavage of fluorescence energy transfer substrate PEPDAB064 or PEPDAB013) (% inhibition at 5 uM): 40

B2: ADAM8 prodomain peptide SEQ ID NO: 15 (peptide, not shown: small tags and cut ends)
chain: B1 chain with A29G
percent inhibition of ADAM8 (cleavage of fluorescence energy transfer substrate PEPDAB064 or PEPDAB013) (% inhibition at 4.8 uM): 45

B3: SEQ ID NO: 17 (Pegylated on N-terminus) (peptide, part only; not given: added cysteine residues and His tag, not shown: small tags and cut ends)
chain, part: B1 chain with R20W, R26K, A29K
modifications: 5 kDa maleimide PEG on an introduced cysteine near the N-terminus
IC50 for inhibition of ADAM8 (cleavage of fluorescence energy transfer substrate PEPDAB064 or PEPDAB013): 24000 nM

B4: ADAM8 prodomain peptide SEQ ID NO: 17 (peptide, not shown: small tags and cut ends)
chain: B1 chain with R20W, R26K, A29K
percent inhibition of ADAM8 (cleavage of fluorescence energy transfer substrate PEPDAB064 or PEPDAB013) (% inhibition at 4.8 uM): 51

B5: ADAM8 prodomain peptide SEQ ID NO: 16 (peptide, not shown: small tags and cut ends)
chain: B1 chain with A29R, S90C, F91L, S109C, S152C
IC50 for inhibition of ADAM8 (cleavage of fluorescence energy transfer substrate PEPDAB064 or PEPDAB013): 400 nM

B6: ADAM8 prodomain peptide SEQ ID NO: 14 (peptide, not shown: small tags and cut ends)
chain: B1 chain with A29R, S90C, S109C, S152C
IC50 for inhibition of ADAM8 (cleavage of fluorescence energy transfer substrate PEPDAB064 or PEPDAB013): 1400 nM and 2300 nM

B7: wild type human ADAM8 prodomain peptide SEQ ID NO: 2 (peptide, not shown: small tags and cut ends)
chain: B1 chain with R20W, A29R, S90C, S109C, S152C
IC50 for inhibition of ADAM8 (cleavage of fluorescence energy transfer substrate PEPDAB064 or PEPDAB013): 2800 nM and 2300 nM

B8: SEQ ID NO: 14 (pegylated on 3 cysteines) (peptide, not shown: small tags and cut ends)
chain: B1 chain with A29R, S90C, S109C, S152C
modifications: 2 kDa maleimide PEG on all three cysteines (cysteines 105, 124 and 167 of SEQ ID NO: 1 numbering; positions 90, 109 and 152 of SEQ ID NO: 14)
IC50 for inhibition of ADAM8 (cleavage of fluorescence energy transfer substrate PEPDAB064 or PEPDAB013): 2700 nM and 2300 nM

B9: SEQ ID NO: 15 (pegylated at C-terminus) (peptide, part only; not given: added cysteine residues and His tag, not shown: small tags and cut ends)
chain, part: B1 chain with A29G
modifications: 5 kDa maleimide PEG on an added cysteine near the C-terminus
IC50 for inhibition of ADAM8 (cleavage of fluorescence energy transfer substrate PEPDAB064 or PEPDAB013): 1800 nM and 3000 nM
